We go through three molecules from patent US20110243962A1 (GENEURO, published 2011).

Substitutions are numbered along the chain they refer to.

Assay [1] concerns the target T1, MSRV complete ENV protein (ENV-T), recombinant from E. coli (MSRV (Multiple Sclerosis associated …)).
T1 construct: also called ENV-T 7A; His-ENV-T
T1 chain: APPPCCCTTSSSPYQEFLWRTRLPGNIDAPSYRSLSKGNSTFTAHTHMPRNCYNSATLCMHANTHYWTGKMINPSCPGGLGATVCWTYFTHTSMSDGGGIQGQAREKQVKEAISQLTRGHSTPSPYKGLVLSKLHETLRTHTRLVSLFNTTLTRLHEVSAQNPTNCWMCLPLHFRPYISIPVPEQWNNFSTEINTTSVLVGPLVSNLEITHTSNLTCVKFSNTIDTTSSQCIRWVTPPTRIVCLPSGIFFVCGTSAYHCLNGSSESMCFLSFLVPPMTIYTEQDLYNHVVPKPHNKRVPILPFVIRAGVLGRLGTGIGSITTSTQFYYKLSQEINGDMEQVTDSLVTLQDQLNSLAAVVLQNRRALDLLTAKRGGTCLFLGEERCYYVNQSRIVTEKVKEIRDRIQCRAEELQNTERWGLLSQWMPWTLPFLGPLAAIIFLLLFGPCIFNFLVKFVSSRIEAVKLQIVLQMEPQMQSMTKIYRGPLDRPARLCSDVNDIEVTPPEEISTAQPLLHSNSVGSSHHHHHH
As to the kind of experiment: ELISA; ENV 0.25 ug/ml coated; mAb 1 ug/ml. The protocol: (§1) Protocol: Incubation 2 h at 37° C. […] Revelation is made by adding OPD substrate and reading optic density with a spectrophotometer after 30 min (Washing steps with PBS are performed between every step).
In general terms: In an ELISA, binding on a coated surface is turned into a signal by an enzyme label.

In assay [2] the target is T2, MSRV ENV surface domain fragment (ENV-SU), recombinant from E. coli (MSRV (Multiple Sclerosis associated …)).
T2 chain: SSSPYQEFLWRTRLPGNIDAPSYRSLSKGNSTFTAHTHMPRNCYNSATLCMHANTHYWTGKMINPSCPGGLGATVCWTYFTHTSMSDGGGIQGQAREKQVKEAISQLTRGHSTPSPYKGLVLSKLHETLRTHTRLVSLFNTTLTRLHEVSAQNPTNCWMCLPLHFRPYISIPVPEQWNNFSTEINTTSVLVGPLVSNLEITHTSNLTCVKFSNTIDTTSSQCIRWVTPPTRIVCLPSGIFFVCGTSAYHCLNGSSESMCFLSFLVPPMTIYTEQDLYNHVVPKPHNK
As to the kind of experiment: cell-based or functional assay.

Assay [3] deals with T1, MSRV complete ENV protein (ENV-T), …. As to the kind of experiment: ELISA; ENV-T 7A 1 ug/ml coated; mAb concentration cell blank (top of series). The protocol:
as §1

Assay [4] has the same target. As to the kind of experiment: ELISA; ENV-T 7A 1 ug/ml coated; mAb 0.125 ug/ml. The protocol: as §1
For assay [5] the target is unchanged. As to the kind of experiment: ELISA; ENV 0.0625 ug/ml coated; mAb 1 ug/ml. The protocol:
as §1

For assay [6] the target is unchanged. Put plainly: ELISA; coated ENV-T 7A 0.5; ligand 1 microgram. The protocol: (§2) II-1d Direct ELISA on Microplates Coated with ENV Antigen (ENV-T or ENV-SU as Described Above) [0159] Microwells were coated with 100 μl per well of ENV antigen diluted in 50 mM Sodium Bicarbonate, pH 9.6. Plate were sealed and incubated 2 hours at 37° C. under light agitation. [0160] Microwells were washed 4 times with 250 μl per well of PBS (Phosphate Buffer Saline). After the last, plates were inverted and blotted on absorbent paper to remove any residual buffer. [0161] 100 μl per well of detection antibody according to the present invention (GNbAC1 or its Fab fragment) diluted in PBS+BSA 1% (PBS with 1% of Bovine Serum Albumin) were added. Plate were sealed and incubated 1 hour at room temperature under light agitation. […] Microwells were washed 4 times with 250 μl per well of PBS. After the last, plates were inverted and blotted on absorbent paper to remove any residual buffer. [0163] […] Plate were sealed and incubated 1 hour at room temperature under light agitation. [0164] Microwells were washed 6 times with 250 μl per well of PBS. After the last, plates were inverted and blotted on absorbent paper to remove any residual buffer. [0165] 100 μl par well of Substrate Solution (1 tablet of o-Phenylenediamine (OPD) diluted in 10 ml of 0.05M Phosphate Citrate Buffer pH5+10 μl H2O2 30%, prepared at the last moment) were added. Plates were incubated 30 min at room temperature in the dark. […] 50 μl per well of Stop Solution 2N H2SO₄ were added. [0167] The absorbance was read at 490 nm within 30 minutes of stopping reaction.
(§3) Env-T antigen is coated onto microtiter ELISA plate wells with serial dilutions ranging from 1 μg/ml to about 0.01 μg/ml.

For assay [7] the target is unchanged. Put plainly: ELISA; ENV-T 7A 1 ug/ml coated; mAb 0.5 ug/ml. The protocol:
as §1

The target is the same in assay [8]. As to the kind of experiment: ELISA; coated ENV-T 7A 0.25; ligand 1 microgram. The protocol: as §2, §3
Assay [9] shares this target. As to the kind of experiment: ELISA; ENV 0.03125 ug/ml coated; mAb 1 ug/ml. The protocol: as §1
The target is the same in assay [10]. Put plainly: ELISA; coated ENV-T 7A 0.125; ligand 1 microgram. The protocol:
as §2, §3

Assay [11] shares this target. As to the kind of experiment: ELISA; ENV-T 7A 1 ug/ml coated; mAb 0.0078 ug/ml. The protocol: as §1
Assay [12] shares this target. As to the kind of experiment: ELISA; coated ENV-T 7A 0.0078; ligand 1 microgram. The protocol:
as §2, §3

Assay [13] shares this target. As to the kind of experiment: ELISA; ENV-T 7A 1 ug/ml coated; mAb 0.25 ug/ml. The protocol:
as §1

B1: GNbAC1 murine monoclonal antibody (IgG1/kappa) (antibody, V domains shown)
VH: QVQLQQSGAELVRPGAPVTLSCKASGYTFTDYEMHWVKQTPVHGLEWIGAVAPETGGTAYNQKFKGKATLTAAKSSSTAYMELRSLTSEDSAVYYCTSTVVPFAYWGQGTLVTVSA
VL: QIVLTQSPAIMSASPGEKVTISCSASSSVSYMYWYQQKPGSSPKAWIYRTSNLASGVPGRFSGSGSGTSYSLTISSMEAEDAATYYCQQYQSLPLTFGSGTKLEIK
notes: Murine IgG1/kappa from hybridoma; also called murine IgG1; muIgG
B1: the optic density in assay [1] was 1.42 OD; in assay [3] it was 2 OD; in assay [4] it was 0.945 OD; in [5], 0.837 OD; in assay [7], 1.85 OD; in assay [9] it was 0.367 OD. The figures for the optic density in assay [11] and in assay [13] were 0.13 OD and 1.21 OD, respectively. Moreover, the “IFN-gamma Inhibition (%)” value in assay [2] was 52%. The “IFN-gamma Response (%)” value in [2] came out at 48%. In [2], the “IFN-gamma pg/ml, PBMC 72 h” value amounted to 270 pg/mL. The “IL-6 pg/ml, PBMC 72 h” value in assay [2] worked out at 42200 pg/mL. The “IL-6 Inhibition (%)” value in assay [2] was determined as 52%. Moreover, the “IL-6 Response (%)” value in assay [2] amounted to 48%. Further, the optical density in assay [6] worked out at 2.9 OD; in assay [8] it was 2.84 OD; in assay [10] it was 2.29 OD; in [12], 0.625 OD.

B2: Chimeric GNb AC1 IgG1 (human IgG1 constant regions with murine VH and VL) (antibody, V domains shown)
VH: B1 VH
VL: B1 VL
notes: Human IgG1 heavy constant region and human kappa constant region, made in CHO cells; also called GNbAC1 chimeric IgG1; Ligand in human IgG1
Consider B2, for which the optic density in [1] turned out to be 2.27 OD; in assay [3], 2.54 OD; in assay [4], 2.44 OD; in [5] it was 1.85 OD; in [7] it was 2.54 OD; in assay [9], 1.6 OD. In addition, the optic density in [11] was 0.85 OD; in assay [13] it was 2.64 OD. The “IFN-gamma Inhibition (%)” value in [2] was -9%. The “IFN-gamma Response (%)” value in assay [2] stood at 109%. For the same molecule, in assay [2], the “IFN-gamma pg/ml, PBMC 72 h” value worked out at 606 pg/mL. Moreover, the “IL-6 pg/ml, PBMC 72 h” value in assay [2] was 32900 pg/mL. In addition, the “IL-6 Inhibition (%)” value in assay [2] turned out to be 63%. Further, the “IL-6 Response (%)” value in assay [2] was 37%. Moreover, the optical density worked out at 3 OD in [6], 2.89 OD in assay [8], 2.39 OD in assay [10] and 0.815 OD in assay [12].

B3: Chimeric GNb AC1 IgG4 (human IgG4 constant regions with murine VH and VL) (antibody, V domains shown)
VH: B1 VH with P17S
VL: QIVLTQSPAIMSASPGEKVTISCSASSSVSYMYWYQQKPGSSPKAWIYRTSNLASGVPGRFSGSGSGTSYSLTISSMEAEDAATYYCQQYQSLPLTFGSGTKLEIKR
notes: also called GNbAC1 chimeric IgG4; GNbAC1-IgC4
With B3, the optic density in [1] turned out to be 2.3 OD; in assay [3] it was 2.38 OD; in assay [4] it was 1.81 OD; in assay [5], 1.55 OD; in [7], 2.49 OD; in [9], 1.09 OD. Besides, the optic density was 0.474 OD in assay [11] and 2.17 OD in [13]. Moreover, the “IFN-gamma Inhibition (%)” value in assay [2] is 43%. Further, the “IFN-gamma Response (%)” value in assay [2] worked out at 57%. The “IFN-gamma pg/ml, PBMC 72 h” value in [2] came to 318 pg/mL. Also, the “IL-6 pg/ml, PBMC 72 h” value in assay [2] is 53000 pg/mL. The “IL-6 Inhibition (%)” value in assay [2] was 40%. Besides, the “IL-6 Response (%)” value in assay [2] came to 60%. Also, the optical density in [6] is 2.89 OD; in [8] it was 2.52 OD; in assay [10], 1.99 OD; in [12], 0.692 OD.
